Earlier results in article PMC3798119.

Biological target: basigin (CD147) (Homo sapiens) (UniProt P35613)
Sequence of UniProt P35613 (P35613 22-325): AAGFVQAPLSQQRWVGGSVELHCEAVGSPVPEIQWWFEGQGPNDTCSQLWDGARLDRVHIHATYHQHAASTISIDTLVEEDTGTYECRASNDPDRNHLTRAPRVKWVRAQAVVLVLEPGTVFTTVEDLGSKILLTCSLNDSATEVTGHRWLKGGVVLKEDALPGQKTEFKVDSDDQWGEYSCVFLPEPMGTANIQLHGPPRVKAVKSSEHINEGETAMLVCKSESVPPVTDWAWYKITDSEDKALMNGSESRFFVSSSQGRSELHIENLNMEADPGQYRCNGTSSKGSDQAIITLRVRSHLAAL

RH5 (from UniProt Q8IFM5)
Kd: 1100 nM
